From PMC9952701

Target: insulin-like growth factor receptor type 1 (IGF1R) (mouse (endogenous in HEI-OC1)) (UniProt Q60751)
UniProt Q60751, sequence (Q60751 31-1373): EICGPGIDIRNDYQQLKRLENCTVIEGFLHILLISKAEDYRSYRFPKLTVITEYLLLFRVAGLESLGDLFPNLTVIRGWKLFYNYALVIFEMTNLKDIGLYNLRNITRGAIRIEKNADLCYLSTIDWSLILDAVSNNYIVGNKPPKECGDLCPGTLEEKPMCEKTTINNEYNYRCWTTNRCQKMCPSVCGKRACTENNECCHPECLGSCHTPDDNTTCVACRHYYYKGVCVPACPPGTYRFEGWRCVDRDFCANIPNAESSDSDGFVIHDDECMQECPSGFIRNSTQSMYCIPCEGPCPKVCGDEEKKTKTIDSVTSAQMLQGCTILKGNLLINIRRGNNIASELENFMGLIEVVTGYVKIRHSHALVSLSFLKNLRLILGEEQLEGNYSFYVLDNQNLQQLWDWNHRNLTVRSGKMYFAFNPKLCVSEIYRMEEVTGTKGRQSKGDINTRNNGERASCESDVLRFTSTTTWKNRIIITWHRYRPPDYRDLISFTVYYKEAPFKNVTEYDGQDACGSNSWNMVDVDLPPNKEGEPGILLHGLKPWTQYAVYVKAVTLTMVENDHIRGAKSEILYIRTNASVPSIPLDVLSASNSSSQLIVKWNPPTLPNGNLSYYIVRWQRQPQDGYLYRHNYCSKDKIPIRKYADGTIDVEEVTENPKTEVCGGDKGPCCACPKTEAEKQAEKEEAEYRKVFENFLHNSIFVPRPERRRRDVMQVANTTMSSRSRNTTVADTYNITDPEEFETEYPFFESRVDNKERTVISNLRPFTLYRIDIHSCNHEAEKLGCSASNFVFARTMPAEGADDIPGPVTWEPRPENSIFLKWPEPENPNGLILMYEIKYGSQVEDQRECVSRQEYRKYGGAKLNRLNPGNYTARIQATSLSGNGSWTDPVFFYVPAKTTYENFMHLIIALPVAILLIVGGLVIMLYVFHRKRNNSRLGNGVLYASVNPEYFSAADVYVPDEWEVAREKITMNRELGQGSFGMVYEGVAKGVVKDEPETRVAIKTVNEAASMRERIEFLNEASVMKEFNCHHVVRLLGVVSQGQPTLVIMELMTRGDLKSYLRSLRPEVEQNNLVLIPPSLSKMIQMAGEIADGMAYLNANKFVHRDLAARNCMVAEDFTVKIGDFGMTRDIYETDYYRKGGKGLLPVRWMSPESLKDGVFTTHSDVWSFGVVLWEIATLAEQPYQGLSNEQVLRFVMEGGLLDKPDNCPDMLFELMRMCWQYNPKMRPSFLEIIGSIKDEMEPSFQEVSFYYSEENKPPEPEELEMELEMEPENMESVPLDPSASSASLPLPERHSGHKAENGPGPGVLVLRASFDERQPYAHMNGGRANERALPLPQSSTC

p-IGF1Rβ (Tyr1135) level by Western blot in HEI-OC1 progenitor cells treated with IGF-1 (10 nM), sustained for 30 min, versus untreated control: 11 fold
p-IGF1Rβ (Tyr1135) level by Western blot in differentiated HEI-OC1 cells treated with IGF-1 (10 nM) for 5 min, versus untreated control: 3.5 fold
Substance: human recombinant IGF-1 (insulin-like growth factor 1) (from UniProt P05019 49-118) (ligand)
